In the supplement of paper PMC5998384:

Experiments:
HeLa Kyoto [1] = assay: solubility in G1/S (NP-40 vs SDS abundance) (log2 ratio); higher = more soluble; details: cell cycle stage: G1/S
HeLa Kyoto [2] = assay: thermal stability score vs G1/S (z-score of summed log2 fold changes over temperatures); higher = more thermally stable than in G1/S
HeLa Kyoto [3] = assay: solubility change mitosis vs G1/S (difference of NP-40 vs SDS log2 ratios) (log2 ratio difference); higher = more soluble in mitosis
HeLa Kyoto [4] = assay: melting temperature (median over replicates), in situ; higher = more thermally stable
[5] = cell cycle stage: early G1 (4.5 h after nocodazole release)
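Throughout, for melting temperature (median over replicates), in situ: HeLa Kyoto cells synchronized by double thymidine or nocodazole block, proteins quantified by TMT10plex mass spectrometry, three independent biological replicates.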
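Throughout, for solubility change mitosis vs G1/S (difference of NP-40 vs SDS log2 ratios): synchronized HeLa Kyoto cells (double thymidine block for G1/S, nocodazole release for mitosis), protein amounts in NP-40 versus SDS lysates quantified by mass spectrometry, three biological replicates.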
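Throughout, for solubility in G1/S (NP-40 vs SDS abundance): HeLa Kyoto cells arrested at G1/S by double thymidine block, proteins quantified by TMT10plex mass spectrometry in mild NP-40 versus SDS extracts, three biological replicates.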
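Throughout, for thermal stability score vs G1/S (z-score of summed log2 fold changes over temperatures): synchronized HeLa Kyoto cells, proteins quantified by TMT10plex mass spectrometry, three biological replicates, mitosis taken 0.5 h after nocodazole release, G1/S directly after double thymidine block.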

Sequence	solubility in G1/S (log2) (HeLa Kyoto [1])	thermal stability score (HeLa Kyoto [2]; [5])	thermal stability score (HeLa Kyoto [2]; cell cycle stage: mitosis)	solubility change mitosis (log2) (HeLa Kyoto [3])	melting temperature (HeLa Kyoto [4]; cell cycle stage: G1/S)	melting temperature (HeLa Kyoto [4]; cell cycle stage: mitosis)
MERFRLEKKLPGPDEEAVVDLGKTSSTVNTKFEKEELESHRAVYIGVHVPFSKESRRRHRHRGHKHHHRRRKDKESDKEDGRESPSYDTPSQRVQFILGTEDDDEEHIPHDLFTEMDELCYRDGEEYEWKETARWLKFEEDVEDGGDRWSKPYVATLSLHSLFELRSCILNGTVMLDMRASTLDEIADMVLDNMIASGQLDESIRENVREALLKRHHHQNEKRFTSRIPLVRSFADIGKKHSDPHLLERNGEGLSASRHSLRTGLSASNLSLRGESPLSLLLGHLLPSSRAGTPAGSRCTTPVPTPQNSPPSSPSISRLTSRSSQESQRQAPELLVSPASDDIPTVVIHPPEEDLEAALKGEEQKNEENVDLTPGILASPQSAPGNLDNSKSGEIKGNGSGGSRENSTVDFSKVDMNFMRKIPTGAEASNVLVGEVDFLERPIIAFVRLAPAVLLTGLTEVPVPTRFLFLLLGPAGKAPQYHEIGRSIATLMTDEIFHDVAYKAKDRNDLLSGIDEFLDQVTVLPPGEWDPSIRIEPPKSVPSQEKRKIPVFHNGSTPTLGETPKEAAHHAGPELQRTGRLFGGLILDIKRKAPFFLSDFKDALSLQCLASILFLYCACMSPVITFGGLLGEATEGRISAIESLFGASLTGIAYSLFAGQPLTILGSTGPVLVFEKILYKFCRDYQLSYLSLRTSIGLWTSFLCIVLVATDASSLVCYITRFTEEAFAALICIIFIYEALEKLFDLGETYAFNMHNNLDKLTSYSCVCTEPPNPSNETLAQWKKDNITAHNISWRNLTVSECKKLRGVFLGSACGHHGPYIPDVLFWCVILFFTTFFLSSFLKQFKTKRYFPTKVRSTISDFAVFLTIVIMVTIDYLVGVPSPKLHVPEKFEPTHPERGWIISPLGDNPWWTLLIAAIPALLCTILIFMDQQITAVIINRKEHKLKKGAGYHLDLLMVGVMLGVCSVMGLPWFVAATVLSISHVNSLKVESECSAPGEQPKFLGIREQRVTGLMIFILMGLSVFMTSVLKFIPMPVLYGVFLYMGVSSLKGIQLFDRIKLFGMPAKHQPDLIYLRYVPLWKVHIFTVIQLTCLVLLWVIKVSAAAVVFPMMVLALVFVRKLMDLCFTKRELSWLDDLMPESKKKKEDDKKKKEKEEAERMLQDDDDTVHLPFEGGSLLQIPVKALKYSPDKPVSVKISFEDEPRKKYVDAETSL [SLC4A7]	-0.196	-0.753	1.69	0.0133	54.4 °C	53.6 °C
MERHQPRLHHPAQGSAAGTPYPSSASLRGCRESKMPRRKGPQHPPPPSGPEEPGEKRPKFHLNIRTLTDDMLDKFASIRIPGSKKERPPLPNLKTAFASSDCSAAPLEMMENFPKPLSENELLELFEKMMEDMNLNEDKKAPLREKDFSIKKEMVMQYINTASKTGSLKRSRQISPQEFIHELKMGSADERLVTCLESLRVSLTSNPVSWVESFGHEGLGLLLDILEKLISGKIQEKVVKKNQHKVIQCLKALMNTQYGLERIMSEERSLSLLAKAVDPRHPNMMTDVVKLLSAVCIVGEESILEEVLEALTSAGEEKKIDRFFCIVEGLRHNSVQLQVACMQLINALVTSPDDLDFRLHIRNEFMRCGLKEILPNLKCIKNDGLDIQLKVFDEHKEEDLFELSHRLEDIRAELDEAYDVYNMVWSTVKETRAEGYFISILQHLLLIRNDYFIRQQYFKLIDECVSQIVLHRDGMDPDFTYRKRLDLDLTQFVDICIDQAKLEEFEEKASELYKKFEKEFTDHQETQAELQKKEAKINELQAELQAFKSQFGALPADCNIPLPPSKEGGTGHSALPPPPPLPSGGGVPPPPPPPPPPPLPGMRMPFSGPVPPPPPLGFLGGQNSPPLPILPFGLKPKKEFKPEISMRRLNWLKIRPHEMTENCFWIKVNENKYENVDLLCKLENTFCCQQKERREEEDIEEKKSIKKKIKELKFLDSKIAQNLSIFLSSFRVPYEEIRMMILEVDETRLAESMIQNLIKHLPDQEQLNSLSQFKSEYSNLCEPEQFVVVMSNVKRLRPRLSAILFKLQFEEQVNNIKPDIMAVSTACEEIKKSKSFSKLLELVLLMGNYMNAGSRNAQTFGFNLSSLCKLKDTKSADQKTTLLHFLVEICEEKYPDILNFVDDLEPLDKASKVSVETLEKNLRQMGRQLQQLEKELETFPPPEDLHDKFVTKMSRFVISAKEQYETLSKLHENMEKLYQSIIGYYAIDVKKVSVEDFLTDLNNFRTTFMQAIKENIKKREAEEKEKRVRIAKELAERERLERQQKKKRLLEMKTEGDETGVMDNLLEALQSGAAFRDRRKRTPMPKDVRQSLSPMSQRPVLKVCNHENQKVQLTEGSRSHYNINCNSTRTPVAKELNYNLDTHTSTGRIKAAEKKEACNVESNRKKETELLGSFSKNESVPEVEALLARLRAL [DIAPH3]	0.186	1.77	3.55	-0.183	46.8 °C	46.4 °C
MERKVLALQARKKRTKAKKDKAQRKSETQHRGSAPHSESDLPEQEEEILGSDDDEQEDPNDYCKGGYHLVKIGDLFNGRYHVIRKLGWGHFSTVWLSWDIQGKKFVAMKVVKSAEHYTETALDEIRLLKSVRNSDPNDPNREMVVQLLDDFKISGVNGTHICMVFEVLGHHLLKWIIKSNYQGLPLPCVKKIIQQVLQGLDYLHTKCRIIHTDIKPENILLSVNEQYIRRLAAEATEWQRSGAPPPSGSAVSTAPQPKPADKMSKNKKKKLKKKQKRQAELLEKRMQEIEEMEKESGPGQKRPNKQEESESPVERPLKENPPNKMTQEKLEESSTIGQDQTLMERDTEGGAAEINCNGVIEVINYTQNSNNETLRHKEDLHNANDCDVQNLNQESSFLSSQNGDSSTSQETDSCTPITSEVSDTMVCQSSSTVGQSFSEQHISQLQESIRAEIPCEDEQEQEHNGPLDNKGKSTAGNFLVNPLEPKNAEKLKVKIADLGNACWVHKHFTEDIQTRQYRSLEVLIGSGYNTPADIWSTACMAFELATGDYLFEPHSGEEYTRDEDHIALIIELLGKVPRKLIVAGKYSKEFFTKKGDLKHITKLKPWGLFEVLVEKYEWSQEEAAGFTDFLLPMLELIPEKRATAAECLRHPWLNS [SRPK1]	-0.411	0.23	-0.71	0.114	51.7 °C	51.3 °C
MERPDKAALNALQPPEFRNESSLASTLKTLLFFTALMITVPIGLYFTTKSYIFEGALGMSNRDSYFYAAIVAVVAVHVVLALFVYVAWNEGSRQWREGKQD [VMA21]	-0.135	-1.79	-0.397	-0.124	55.6 °C	56.7 °C
